Test results published in patent publication US20230399393A1, “METHODS TO EXTEND HEALTH-SPAN AND TREAT AGE-RELATED DISEASES” (National University of Singapore, priority 2020, published 2023).

What was measured:
[1] = system: Primary human hepatic stellate cells (HSCs); assay: Increasing concentrations of IL-11 or IL-6, western blot p-LKB1/p-AMPK; format: cell-based; conditions: 24 hours; p-LKB1, p-AMPK
Procedure: (§1) FIG. 23. Western blot image showing the levels of p-LKB1, LKB1, p-AMPK, AMPK in primary human hepatocytes or primary human hepatic stellate cells that are unstimulated (BL) or stimulated for 24 hours with increasing concentrations (1.25, 2.5, 5, 10 or 20 ng/ml) of IL-11 or IL-6.
(§2) Primary human hepatic stellate cells (HSCs) and human hepatocytes were stimulated for 24 hours with increasing concentrations (1.25-20 ng/ml) of IL-11 or IL-6. […] The effect of IL-11 on these markers is observable at concentrations as low as 1.25 ng/ml in both HSCs and hepatocytes.

[2] = system: human hepatocytes; assay: as above; format: cell-based; conditions: 24 hours; p-LKB1, p-AMPK
Procedure: as §1, §2

[3] = system: Human hepatic stellate cells; assay: IL-11 stimulation of cells overexpressing wild-type LKB1, western blot; format: cell-based; conditions: IL11 10 ng/ml, 2 hours
Procedure: (§3) FIG. 17. Human hepatic stellate cells (17A) and hepatocytes (17B) were infected with AAV8 encoding human LKB1 (multiplicity of infection=20) for 24 hours and then stimulated with IL11 (10 ng/ml) for 2 hours. Cell lysates were immunoblotted for the proteins shown.
(§4) Human hepatic stellate cells (FIG. 17A) and human hepatocytes (FIG. 17B) were engineered to overexpress the wild-type LKB1 and a double mutant S325A, S428A (DM-LKB1). FIGS. 17A and 17B confirm that stimulation with IL-11 induces phosphorylation at […] in the WT LKB1 cells. As expected, phosphorylation is not observed in the double mutant LKB1 cells.

[4] = system: human hepatocytes; assay: as above; format: cell-based; conditions: IL11 10 ng/ml, 2 hours
Procedure: as §3, §4

[5] = system: human hepatocytes; assay: IL-11 stimulation in the presence of DMSO or U0126, western blot; format: cell-based; conditions: IL-11 treatment 24 hours
Procedure: (§5) FIG. 22. Western blot image showing the levels of p-ERK, ERK, p-P90RSK, P90RSK, p-LKB1, LKB1, p-AMPK, AMPK, p-mTOR, mTOR, p-p70S6K, p70S6K, p-S6RP, S6RP in primary human hepatocytes that are unstimulated (BL+DMSO) or stimulated for 24 hours with IL11 in the presence DMSO or U0126 (10 μM).
(§6) Primary human hepatic stellate cells and human hepatocytes were stimulated for 24 hours with IL-11 in the presence DMSO or U0126. As discussed in Example 4.4, the inventors observed that IL-11 treatment stimulates p-mTOR, p-70S6K and p-S6RP. In line with the inventors' hypothesis, administration of U0126 to IL-11-stimulated cells prevents ERK-mediated inactivation of LKB1/AMPK that stops IL11-induced mTORC1/P70S6K activation (FIG. 21 and FIG. 22, respectively).

[6] = target: T1, IL-11Rα (Homo sapiens, UniProt Q14626); conditions: low affinity binding to IL-11Rα alone; cited from earlier work
T1 sequence (Q14626 23-422): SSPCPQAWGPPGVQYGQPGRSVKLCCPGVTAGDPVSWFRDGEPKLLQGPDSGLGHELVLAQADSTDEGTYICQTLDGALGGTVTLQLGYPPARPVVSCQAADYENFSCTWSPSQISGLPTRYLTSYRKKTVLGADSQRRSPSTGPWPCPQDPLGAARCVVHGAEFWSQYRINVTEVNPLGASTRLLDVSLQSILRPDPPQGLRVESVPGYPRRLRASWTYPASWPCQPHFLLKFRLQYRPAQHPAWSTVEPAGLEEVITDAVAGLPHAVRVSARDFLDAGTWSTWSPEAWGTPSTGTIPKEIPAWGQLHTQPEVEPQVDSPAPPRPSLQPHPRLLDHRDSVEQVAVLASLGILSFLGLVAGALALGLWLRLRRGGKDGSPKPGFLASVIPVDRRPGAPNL

[7] = system: Primary human cardiac fibroblasts; assay: IL-11 stimulation time course, western blot; format: cell-based; conditions: IL-11 10 ng/ml, 15 mins, 2, 4, 6 or 24 hours
Procedure: FIG. 15. Western blot image showing the levels of p-LKB1, LKB1, p-mTOR, mTOR in primary human cardiac fibroblasts that are stimulated with IL11 (10 ng/ml), for 15 minutes, 2 hours, 4 hours, 6 hours, or 24 hours.
Primary human cardiac fibroblasts were stimulated with IL-11 (10 ng/ml), for 15 mins, 2, 4, 6, or 24 hours and the levels of phosphorylated LKB1 (p-LKB1), LKB1, phosphorylated mTOR (p-mTOR) and mTOR were measured by western blot.

[8] = system: Primary human hepatic stellate cells; assay: IL-11 stimulation in the presence of DMSO or U0126, western blot; format: cell-based; conditions: IL-11 treatment 24 hours
Procedure: as §5, with “FIG. 21.” for “FIG. 22.”, “p-S6RP, S6RP, SMA, and GAPDH” for “p-S6RP, S6RP”, “human hepatic stellate cells” for “human hepatocytes”
as §6

[9] = system: A549 cells; assay: IL-11 stimulation of A549 cells overexpressing human LKB1, western blot; format: cell-based; conditions: IL11 10 ng/ml; AAV8 human LKB1
Procedure: FIG. 16. IL-11 stimulates ERK-mediated phosphorylation of LKB1 serine 325(S325) and P90RSK-mediated phosphorylation of LKB1 serine 428 (S428) with subsequent inactivation of AMPK and activation of mTOR, P70RSK and S6RP. (16A) A549 cells were infected with AAV8 encoding human LKB1 (multiplicity of infection=20) for 24 hours and then stimulated with IL11 (10 ng/ml) for the indicated times (15 minutes, 2 hours, 4 hours, 6 hours, or 24 hours). Cell lysates were immunoblotted for the proteins shown. (16B) Schematic of activation of ERK (directly) and P90RSK (indirectly) by IL-11-mediated signalling and downstream effects on hallmarks of ageing. P or p; phosphorylated amino acid.
To determine the mechanism through which IL-11 stimulates phosphorylation of LKB1, A549 cells were engineered to overexpress human LKB1 (AA8-LKB1 in FIG. 16A) and treated with IL-11.

[10] = target: T2, Mouse IL-11 protein in tissue lysates of C57Bl/6J mice (mouse, UniProt P47873 22-199, limits assumed); assay: western blot of mouse liver lysates (SDS-PAGE, PVDF), X203 as primary antibody, anti-mouse HRP and ECL detection
T2 sequence (looked up): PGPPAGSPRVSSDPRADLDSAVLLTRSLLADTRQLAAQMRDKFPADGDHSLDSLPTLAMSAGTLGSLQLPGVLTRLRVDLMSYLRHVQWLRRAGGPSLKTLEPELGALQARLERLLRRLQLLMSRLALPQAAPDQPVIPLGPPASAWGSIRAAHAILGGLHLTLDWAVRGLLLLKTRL
Procedure: Briefly, livers were harvested from mice and homogenized in radioimmunoprecipitation assay (RIPA) lysis and Extraction Buffer (ThermoFisher Scientific) containing protease and phosphatase inhibitors (Roche), followed by centrifugation to clear the lysate. Protein concentrations were determined by Bradford assay (Bio-Rad). Equal amounts of protein lysates were separated by SDS-PAGE, transferred to PVDF membranes, blocked for 1 h with 3% BSA, and incubated overnight with X203 (1:2000) or anti-GAPDH (1:1000, CST). Protein bands were visualized using the ECL detection system (Pierce) with the appropriate secondary antibodies: anti-mouse HRP and anti-rabbit HRP (1:5000, CST). […]

[11] = system: IL-11 signalling; conditions: binds IL-11Rα, engagement of gp130 homodimer fails; cited from earlier work

B1: IL-11: Interleukin 11, pleiotropic cytokine of the IL-6 family, used to stimulate cells (protein)
chain: PGPPAGSPRVSSDPRADLDSAVLLTRSLLADTRQLAAQMRDKFPADGDHSLDSLPTLAMSAGTLGSLQLPGVLTRLRVDLMSYLRHVQWLRRAGGPSLKTLEPELGALQARLERLLRRLQLLMSRLALPQAAPDQPVIPLGPPASAWGSIRAAHAILGGLHLTLDWAVRGLLLLKTRL
- lowest concentration at which the effect on these markers is observable [1]: 1.25 ng/mL
- lowest concentration at which the effect on these markers is observable [2]: 1.25 ng/mL
- phosphorylation at S428 and S325 in the WT LKB1 cells [3]: induces
- phosphorylation at S428 and S325 in the WT LKB1 cells [4]: induces
- p-mTOR, p-70S6K and p-S6RP [5]: stimulates
- Kd [6]: ~22 nM
- level of phosphorylated LKB1 and phosphorylated mTOR [7]: increases
- p-mTOR, p-70S6K and p-S6RP [8]: stimulates
- ERK-mediated phosphorylation of LKB1 Serine 325 (S325) and P90RSK-mediated phosphorylation of LKB1 serine 428 (S428) [9]: stimulates

B2: X203, mouse anti-mouse IL-11 IgG (anti-IL-11 antagonist antibody) (antibody, V domains shown)
VH: EVQLQQSGPELVKPGASVKIPCKASGYTFTDYNMDWVKQSHGKSLEWIGDINPHNGGPIYNQKFTGKATLTVDKSSSTAYMELRSLTSEDTAVYYCARGELGHWYFDVWGTGTTVTVSS
VL: DIVLTQSPASLAVSLGQRATISCRASKSVSTSGYSYIHWYQQKPGQPPKLLIYLASNLDSGVPARFSGSGSGTDFTLNIHPVEEEDAATYYCQHSRDLPPTFGGGTKLEIK
notes: also called Enx203; anti-IL11 (X203)
- binding result [10]: binds

B3: W147A: IL-11 antagonist in which amino acid 147 is mutated from a tryptophan to an alanine (protein, UniProt P20809 22-199, looked up, variant W147A)
Interleukin-11: PGPPPGPPRVSPDPRAELDSTVLLTRSLLADTRQLAAQLRDKFPADGDHNLDSLPTLAMSAGALGALQLPGVLTRLRADLLSYLRHVQWLRRAGGSSLKTLEPELGTLQARLDRLLRRLQLLMSRLALPQPPPDPPAPPLAPPSSAAGGIRAAHAILGGLHLTLDWAVRGLLLLKTRL
- blockade of IL-11 signalling [11]: efficient blockade
